The values that follow come from publication PMC4858679, “PCNA is involved in the EndoQ-mediated DNA repair process in Thermococcales” (Scientific Reports, 2016).

The target of data set [1] is T1, Endonuclease Q from Pyrococcus furiosus (Pyrococcus furiosus (endogenous in P. …, UniProt Q8U0N5 1-424)).
T1 sequence (looked up): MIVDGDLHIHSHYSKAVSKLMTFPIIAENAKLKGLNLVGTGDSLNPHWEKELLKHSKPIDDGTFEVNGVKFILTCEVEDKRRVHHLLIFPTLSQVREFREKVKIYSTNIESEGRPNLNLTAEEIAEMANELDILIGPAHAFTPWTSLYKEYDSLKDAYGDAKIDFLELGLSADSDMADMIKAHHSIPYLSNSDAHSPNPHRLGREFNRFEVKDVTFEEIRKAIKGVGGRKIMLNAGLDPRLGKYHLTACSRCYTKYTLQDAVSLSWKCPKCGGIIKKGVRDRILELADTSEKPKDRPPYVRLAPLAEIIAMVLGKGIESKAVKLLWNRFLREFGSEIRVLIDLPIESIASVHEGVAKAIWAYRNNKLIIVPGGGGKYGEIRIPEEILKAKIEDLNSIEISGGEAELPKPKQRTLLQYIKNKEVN
The data set can be described thus: cell-based or functional assay.

Data set [2] concerns the molecule itself. The data set can be described thus: SEC; gel filtration of purified TkoPCNA1 proteins; 160 μM.
Data set [3] concerns the target T2, Endonuclease Q from Thermococcus kodakarensis, wild type (Thermococcus kodakarensis, UniProt Q5JI33 1-421).
T2 construct: Endonuclease Q (EndoQ), Thermococcus kodakarensis KOD1, locus TK0887, GenBank BAD85076; printed MW 48080.3; the C-terminal truncation removes residues 409-421, so the chain ends at 421; no tag is named; also called TkoEndoQ; TkoEndoQ^WT; source: E. coli, purified (as described previously)
T2 sequence (looked up): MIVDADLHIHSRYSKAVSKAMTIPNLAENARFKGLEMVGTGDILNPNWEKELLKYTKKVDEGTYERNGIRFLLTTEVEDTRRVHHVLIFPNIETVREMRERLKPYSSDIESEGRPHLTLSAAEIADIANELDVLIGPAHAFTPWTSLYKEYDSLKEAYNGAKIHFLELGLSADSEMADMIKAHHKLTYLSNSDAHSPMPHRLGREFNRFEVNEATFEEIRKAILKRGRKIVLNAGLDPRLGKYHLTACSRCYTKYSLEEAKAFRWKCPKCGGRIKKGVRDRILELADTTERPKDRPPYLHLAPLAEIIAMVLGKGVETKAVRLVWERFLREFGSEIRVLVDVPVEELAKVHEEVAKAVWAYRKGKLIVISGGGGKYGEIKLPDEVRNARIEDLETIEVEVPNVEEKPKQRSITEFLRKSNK
The data set can be described thus: SPR; Biacore J; TkoPCNA1 immobilised on a CM5 chip, TkoEndoQ injected (12-800 nM, 120 s); 25 °C; 10 mM HEPES pH 7.4, 0.4 M NaCl, 0.005% Tween20; 1:1 reaction model; apparent KD. Particulars: both partners purified.

B1: Proliferating cell nuclear antigen from Pyrococcus furiosus (natural protein, UniProt O73947 1-249, looked up)
chain: MPFEIVFEGAKEFAQLIDTASKLIDEAAFKVTEDGISMRAMDPSRVVLIDLNLPSSIFSKYEVVEPETIGVNMDHLKKILKRGKAKDTLILKKGEENFLEITIQGTATRTFRVPLIDVEEMEVDLPELPFTAKVVVLGEVLKDAVKDASLVSDSIKFIARENEFIMKAEGETQEVEIKLTLEDEGLLDIEVQEETKSAYGVSYLSDMVKGLGKADEVTIKFGNEMPMQMEYYIRDEGRLTFLLAPRVEE
Consider B1, for which the “stimulation of the endonuclease activity of purified PfuEndoQ on dI-containing DNA by purified PfuPCNA (0.18 M NaCl)” value in data set [1] was in the range of 6 to 7 fold.

B2: Proliferating cell nuclear antigen 1 from Thermococcus kodakarensis, wild type (natural protein, UniProt Q5JF32 1-249, looked up)
chain: MPFEVVFDGAKEFADLIATASNLIDEAAFKFTEEGISMRAMDPSRVVLIDLNLPESIFSKYEVEEPETIGINMDQFKKILKRGKAKDTLILRKGDENFLEITFEGTAKRTFRLPLIDVEELELELPELPFTAKVVLLGEVLKEGIKDASLVSDAIKFIAKENEFTMKAEGETNEVEIRLTLEDEGLLDLEVEEETKSAYGIRYLSDMVKGIGKADEVILRFGNEMPLQMEYMIRDEGRLTFLLAPRVEE
notes: PCNA1 (DNA polymerase sliding clamp 1), Thermococcus kodakarensis, locus TK0535; printed MW 28239.4; also called TkoPCNA1; TkoPCNA1^WT; source: E. coli, purified (as described previously)
For the molecule B2, the binding result in data set [2] was “binds”. The Kd in data set [3] was found to be 55 nM.
